From patent US20160083712A1

Biological target: CSN5 WT, soluble MPN domain construct of Example 2 (Homo sapiens)
Experiment: ITC

Chain of CSN5 WT, soluble MPN domain construct of Example 2 (Homo sapiens) (O35864 1-257 limits assumed): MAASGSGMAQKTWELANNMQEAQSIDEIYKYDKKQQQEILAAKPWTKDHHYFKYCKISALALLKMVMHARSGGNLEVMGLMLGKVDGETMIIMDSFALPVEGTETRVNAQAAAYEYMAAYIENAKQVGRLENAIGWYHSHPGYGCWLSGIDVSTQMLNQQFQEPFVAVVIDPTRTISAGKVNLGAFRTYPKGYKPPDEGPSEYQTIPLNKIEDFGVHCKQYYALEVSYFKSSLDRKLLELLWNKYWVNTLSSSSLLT

Substance: CSN6, soluble MPN domain construct of Example 2 (from UniProt Q7L5N1 31-211)
- Kd: 1000 to 5000 nM
